Changes are numbered by the printed parent chain. In names and notes the source's numbering stands.
T1: human β-klotho (human, UniProt Q86Z14 1-1044)
T1 sequence (looked up): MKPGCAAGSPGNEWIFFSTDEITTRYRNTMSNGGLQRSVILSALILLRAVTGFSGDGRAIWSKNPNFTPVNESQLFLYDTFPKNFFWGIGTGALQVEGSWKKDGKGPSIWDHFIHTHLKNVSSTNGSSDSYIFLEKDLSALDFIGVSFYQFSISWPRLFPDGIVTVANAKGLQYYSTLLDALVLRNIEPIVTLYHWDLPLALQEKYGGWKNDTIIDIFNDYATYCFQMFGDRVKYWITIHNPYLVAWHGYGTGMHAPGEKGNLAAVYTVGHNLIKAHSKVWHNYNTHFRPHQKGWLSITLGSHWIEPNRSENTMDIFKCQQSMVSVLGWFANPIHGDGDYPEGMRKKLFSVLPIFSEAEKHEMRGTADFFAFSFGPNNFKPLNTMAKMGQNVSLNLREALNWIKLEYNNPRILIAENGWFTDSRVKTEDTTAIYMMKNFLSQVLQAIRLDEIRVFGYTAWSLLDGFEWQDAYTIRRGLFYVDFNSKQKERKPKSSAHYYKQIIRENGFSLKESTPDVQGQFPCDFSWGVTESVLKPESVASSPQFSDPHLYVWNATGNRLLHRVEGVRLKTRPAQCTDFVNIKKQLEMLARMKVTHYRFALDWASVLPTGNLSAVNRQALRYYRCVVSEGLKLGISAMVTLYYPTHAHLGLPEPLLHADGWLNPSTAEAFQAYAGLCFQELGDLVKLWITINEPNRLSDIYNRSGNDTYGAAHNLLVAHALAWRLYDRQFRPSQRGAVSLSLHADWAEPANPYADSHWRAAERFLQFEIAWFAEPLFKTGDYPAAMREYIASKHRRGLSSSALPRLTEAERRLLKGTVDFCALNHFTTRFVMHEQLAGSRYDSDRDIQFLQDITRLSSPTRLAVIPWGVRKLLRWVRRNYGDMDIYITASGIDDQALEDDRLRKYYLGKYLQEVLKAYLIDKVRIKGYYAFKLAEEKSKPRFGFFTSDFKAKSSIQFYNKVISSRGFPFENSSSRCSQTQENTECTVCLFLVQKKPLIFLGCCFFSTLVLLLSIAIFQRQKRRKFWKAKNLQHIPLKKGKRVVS

B1: hFGF21(33-209)-V87 (ligand)
chain: DSSPLLQFGGQVRQRYLYTDDACQTEAHLEIREDGTVGGAADQSPESLLQLRALRPGVIQILGVRTSRFLCQRPDGALYGSLHFDPEACSFRELLLEDGYNVYQSEAHGLPLHLPCNRSPHKDPAPRGPARFLPLPGLPPAPPEPPGILAPQPPDVGSSDPLAMVGPSQGRSPSYAS
B2: hFGF21(33-209)-V83 (ligand)
chain: DSSPLLQFGGQVRQRYLYTDDAQQTEAHLEIREDGTVGGAADQSPESLLELKALKPGVIQILGVKTSRFLCQKPDGTLYGSLHFDPEACSFRELLLEDGYNVYQSEAHGLPLHLPGNRSPHCDPASRGPARFLPLPGLPPALPEPPGILAPQPPDVGSSDPLAMVGPSQARSPSYAS
B3: hFGF21(33-209)-V84 (ligand)
chain: B2 chain with K73R, A107T
B4: hFGF21(33-209)-V85 (ligand)
chain: B2 chain with D42H, T77A, D98E, S126P, R127Q, A170G
B5: hFGF21(33-209)-WT-R154C-40 kDa bPEG-MA (ligand)
chain: B2 chain with E50Q, K73R, T77A, R118K, S126P, A163S, A170G
modifications: 40 kDa branched maleimido-PEG on Cys 154 (numbered on SEQ ID NO:1)
B6: hFGF21(33-209)-V86 (ligand)
chain: B1 chain with C23Q, C116G
B7: hFGF21(33-209)-WT-AM (ligand)
chain: B1 chain with C23Q, R52K, R55K, R65K, C116G, R118K, K122R, A163S
B8: hFGF21(33-209)-WT-R154C (ligand)
chain: B2 chain with E50Q, K73R, T77A, R118K, S126P, A163S, A170G
B9: hFGF21(33-209)-WT-CH (ligand)
chain: B2 chain with E50Q, K73R, T77A, R118K, C122R, S126P, A163S, A170G
B10: hFGF21(33-209)-WT-N-40 kDa bPEG-AL (ligand)
chain: B2 chain with E50Q, K73R, T77A, R118K, C122R, S126P, A163S, A170G
modifications: 40 kDa branched PEG (aldehyde reagent) on the N-terminal amine

molecular target: T1, human β-klotho; assay: cell-based or functional assay

EC50 (nM), pERK In Cell Western	Fold-WT (EC50 of variant / EC50 of FGF21-WT)	Binder
1.9 nM	1.6 fold	B1
0.21 nM	0.38 fold	B2
4.5 nM	1.1 fold	B3
2 nM	0.3 fold	B4
9 nM	2.9 fold	B5
8.5 nM	4.5 fold	B6
5.7 nM	1.5 fold	B7
4.2 nM	1.3 fold	B8
7.4 nM	1 fold	B9
20 nM	6.3 fold	B10
